Legend:
[1] = tested on: Tie2 receptor clustering / FOXO1 translocation in HUVECs; assay: Tie2 clustering and FOXO1 translocation in HUVECs (immunofluorescence); type: cell-based, human
Procedure: Tie2 clustering at cell-cell junction area and FOXO1 translocation from nucleus to cytosol by anti-Ang2 antibodies were examined in HUVECs by immunofluorescence. Specifically, HUVECs were seeded on 8 well slide chamber (Lab-Tek™ II) and maintained in EGM-2 medium for 2-3 days. At 100% confluence, the cells were serum starved with EBM-2 medium for 4 hrs and then treated with 1 μg/ml anti-Ang2 antibodies together with 1 μg/ml of hAng2 for 30 min. Thereafter, the cells were fixed with 4% formaldehyde in PBS at room temperature (RT) for 10 min, permeabilized with 0.1% TRITON™ X-100 (non-ionic polyoxyethylene surfactant) in PBS, blocked with 1% BSA in PBS at RT for 60 min, and incubated with primary antibodies at RT for 1 hr. The primary antibodies for hTie2, FOXO1, and Human Fc were used. The cells were then incubated with secondary antibodies (Invitrogen) in the dark at RT for 1 hr and mounted with VECTASHIELD® mounting medium with DAPI (Vector Labs, antifade mounting media optimized for immunofluorescence applications). Images were taken with a laser scanning confocal microscope (LSM880, Carl Zeiss).
2C8H11-induced Tie2 clustering and FOXO1 translocation was examined in a time-course study (from 10 min to 240 min). […] 6-4: Inhibition of Vascular Permeability by Humanized Anti-Ang2 Antibodies

HUVEC monolayer = assay: In vitro vascular permeability (leakage) assay, TNF-α induced, FITC-dextran; type: cell-based, human; details: HUVECs; pre-treatment antibody 1 μg/ml with Ang2 1 μg/ml 30 min; TNF-α 100 ng/ml 22 hr
Procedure: Vascular leakage assay was carried out in HUVECs using In Vitro Vascular Permeability Assay Kit (Millipore®) according to the manufacturer's instruction. HUVECs were seeded into the insert of the transwell plate and cultured for 3 days for 100% confluence. The HUVECs were pre-incubated with Ang2 (1 μg/ml), Ang2 (1 μg/ml) together with Control, 2C8H11 or 4B9H11 antibody (1 μg/ml) for 30 min, and then TNF-α (100 ng/ml) was added, and the cells were incubated at 37° C. for 22 hr. FITC-dextran was added to the upper chamber and incubated for 20 min. Passage of FITC-dextran though the HUVEC monolayer was measured by a fluorescence reader at excitation and emission wavelengths of 485 and 535 nm, respectively.

[2] = tested on: tumor vessels of LLC tumor; assay: Tumor vessel perfusion (lectin) and hypoxia (Hypoxyprobe) in LLC tumors; type: in vivo, C57BL/6 mice; details: compared with Fc or Fc+Cpt
Procedure: To analyze the functionality of tumor vessels after treatment with 2C8H11, vessel perfusability and hypoxia status were evaluated. Before harvesting tumor mass, the mice were intravenously injected with 100 μl of DyLight™ 488-Lectin (Vector laboratory) and intraperitoneally injected with 60 mg/kg of Pimonidazole-HCl (HYPOXYPROBE™+) dissolved in PBS for 30 min before sacrifice. The mice were perfusion-fixed with 4% PFA. We obtained frozen sections from the tumor mass, which were stained with hamster anti-CD31 antibody (1:200, Millipore®) and 4.3.11.3 mouse Pacific blue-Mab (1:50, HYPOXYPROBE™+) in PBS. The sections were imaged using LSM880 confocal microscope (Zeiss), and the obtained images were analyzed using ImageJ software (http://rsb.info.nih.gov/ij) to quantify Lectin+area/CD31+area and HYPOXYPROBE™+area.
Furthermore, hypoxia, as indicated by HYPOXYPROBE™+area, was decreased in tumors treated with 2C8H11 or 2C8H11+Cpt by 72%, when compared with tumors treated with Fc or Fc+Cpt (FIG. 11C).

[3] = tested on: choroidal neovascularization (CNV) / choriocapillaris; assay: Laser-induced CNV model, OCTA: CNV volume and choriocapillary regeneration (avascular space); type: in vivo, mice; details: for reduction of the avascular space: 5 μg intravitreal at 7 days, change from baseline
Procedure: To determine the effect of 2C8H11 in CNV regression and choriocapillary regeneration after establishment of CNV, Fc, VEGF-Trap, control antibody or 2C8H11 (5 μg each) was given intravitreally to the mice by the Nanoliter 2000 micro-injector (World Precision Instruments) at 7 days after laser photocoagulation. Intra-vital optical coherence tomography angiography (OCTA) was performed at 6, 14, 21, and 35 days after laser photocoagulation (FIG. 14A). The retinochoroidal layers were imaged using a prototype high-speed swept-source optical coherence tomography (OCT) system, utilizing a custom ring cavity wavelength-swept laser centered at 1048 nm with an A-scan rate of 230 kHz. OCT images were collected in a 1.7 mm×1.7 mm field of view within the retino-choroidal layer to monitor regeneration of choroidal vasculatures at the site of laser photocoagulation after intravitreal injection of reagents. […] Then, by using automatic layer flattening and segmentation algorithms, cross-sectional OCT angiograms were flattened to RPE, and en face OCT angiograms were generated by separate projection of each flattened cross-sectional OCT angiogram in three depth ranges: inner retinal, outer retinal and choroidal layers. The outer plexiform layer and Bruch's membrane were defined as the boundaries separating inner retinal, outer retinal, and choroidal layers. The density of retina and choroid vessel was automatically calculated as the proportion of measured area occupied by flowing blood vessels defined as pixels having decorrelation values above the threshold level. Avascular pixels were detected from the en face OCT angiogram representing choroidal layer by means of the image processing toolbox of MATLAB® (Math Works). Then the total volume of the avascular space surrounding the laser injury site was calculated by summing the number of avascular pixels multiplied by the volume of one pixel. In order to analyze the changing complexion of avascular space volume, serially measured values in each eye were transformed into percentage change from baseline value. […] Overall, these findings indicate that both 2C8H11 and […] promotes regeneration of the choriocapillaris, while VEGF-Trap leads to choriocapillary regression in the laser-induced CNV model.

B1: 2C8H11: humanized anti-Ang2 human IgG1 antibody from mouse 2C8; VH SEQ ID NO: 55, VL SEQ ID NO: 56 (antibody, V domains shown)
VH: QVQLVQSGAEVKKPGASVKVSCKASGYTFTSYWMHWVRQAPGQGLEWMGMIDPSDSETRLNQKFKDRVTMTRDTSTSTVYMELSSLRSEDTAVYYCARRFYYGSDWYFDVWGQGTLVTVSS
VL: DIQLTQSPSFLSASVGDRVTITCKASQDVGTAVAWYQQKPGKAPKLLIYWASTRHTGVPSRFSGSGSGTEFTLTISSLQPEDFATYYCQQYSSYPLTFGQGTKVEIK
modifications: human IgG1 constant regions; VH; VL
co-localization of antibody with Tie2 receptor ([1]; HUVECs, 30 min, anti-human Fc staining): co-localized with clustered Tie2 receptor at cell-cell contact and endocytosed Tie2 receptor in cytosol | Tie2 translocation/clustering to cell-cell contact ([1]; HUVECs, 30 min, antibodies 1 μg/ml with hAng2 1 μg/ml): induced Tie2 translocation/clustering to cell-cell contact | FOXO1 translocation from nucleus to cytosol ([1]; HUVECs, 30 min, compared to serum-starved control): markedly disappeared in nucleus | Tie2 receptor / Tie2 clustering at cell-cell contact at late time points ([1]; time-course, with hAng2, 120 min and 240 min): sustained even after 240 min treatment | co-localized antibody with Tie2 at cell-cell contact ([1]; time-course, with hAng2, up to 240 min): maintained until 240 min | vascular leakage induced by TNF-α (passage of FITC-dextran) (HUVEC monolayer): significantly inhibited | hypoxia decrease (HYPOXYPROBE+ area) [2]: 72% | increase in perfusion (Lectin+ area/CD31+ area) [2]: approximately 3 fold | CNV volume in outer retinas (OCTA) ([3]; 5 μg intravitreal at 7 days after laser photocoagulation): markedly reduced CNV volume | reduction of the avascular space ([3]; 14 days after laser photocoagulation): 30.1% | reduction of the avascular space ([3]; 21 days after laser photocoagulation): 36.4% | reduction of the avascular space ([3]; 35 days after laser photocoagulation): 37.0%

From patent US12331106B2, “Anti-angiopoietin-2 antibodies that induce Tie2 activation” (Institute for Basic Science, priority 2018, dated 2025)
